From patent publication US20240238445A1, “INHIBITORS AND USES THEREOF” (NEURACLE SCIENCE CO., LTD., priority 2021, published 2024)

Legend:
[1] = target: binding of FAM19A5 protein to full-length ectodomain of the LRRC4B protein (amino acids 36-576 of SEQ ID NO: 2) (Homo sapiens, UniProt Q7Z5A7); test: Competitive inhibition assay, plate coated with full-length ectodomain of LRRC4B (amino acids 36-576); conditions: 20 nM peptide; for inhibition of interaction between FAM19A5 and the coated LRRC4B protein fragments (in words): statement covers both coats, LRRC4B (36-576) and LRRC4B (453-576); for Inhibition rate (%) LRRC4B (amino acids 36-576)-hFc: FAM19A5 5 ng/ml
Chain of binding of FAM19A5 protein to full-length ectodomain of the LRRC4B protein (amino acids 36-576 of SEQ ID NO: 2) (Q7Z5A7 44-132): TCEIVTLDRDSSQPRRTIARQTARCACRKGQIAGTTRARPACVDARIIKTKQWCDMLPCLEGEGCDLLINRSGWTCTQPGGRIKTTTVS
Method: Next, to further assess the role that the binding domain of the LRRC4B protein has on the interaction between FAM19A5 protein and members of the LRRC4 protein family, a competitive inhibition assay was used to determine whether different LRRC4B deletion constructs from Example 2 could inhibit the binding of FAM19A5 to the full-length ectodomain of the LRRC4B protein (i.e., amino acids 36-576 of SEQ ID NO: 2; SEQ ID NO: 5). Briefly, 100 nM of the full-length ectodomain of the LRRC4B protein was used to coat a plate, and then recombinant FAM19A5 protein (5 ng/mL) was added to the plate in combination with the following LRRC4B deletion constructs (increasing concentrations): (1) LRRC4B (453-576) (i.e., construct #11 in Table 6); (2) LRRC4B (453-576) mutant (comprises alanine substitutions at positions 488 and 489 of SEQ ID NO: 2; SEQ ID NO: 16); (3) LRRC4B (484-576) (i.e., construct #12 in Table 6); (4) LRRC4B (482-576); (5) LRRC4B (482-497); and (6) LRRC4B (498-576). The plates were incubated at 37° C., and then, the amount of FAM19A5 bound to the coated LRRC4B ectodomain protein was measured using HRP-conjugated anti-FAM19A5 (1-65) antibody.
As described in Example 3, there appeared to be much similarity in the binding domains of the different members of the LRRC4 family. […] Then, recombinant FAM19A5 protein (5 ng/mL) was added in combination with one of the following: (i) LRRC4B (484-576) protein fragment, (ii) LRRC4B (453-576, AA) protein fragment, and (iii) synthetic FB-20 peptide. The plates were incubated at 37° C., and then, the amount of FAM19A5 protein bound to the coated LRRC4, LRRC4B, or LRRC4C proteins was measured using anti-FAM19A5 (1-65) antibody.
(§1) Next, to assess whether polypeptides comprising the binding domains of LRRC4 or LRRC4C proteins can have similar inhibitory effects on LRRC4B protein binding, the following synthetic peptides were constructed: (1) FBC4-23 (contains the binding domain of the LRRC4 protein, i.e., YSFFTTVTVETTE); and (2) FBC4C-23 (contains the binding domain of the LRRC4C protein, i.e., FSYFSTVTVETME). Then, the ability of the peptides to inhibit the binding of LRRC4 protein family members to FAM19A5 protein was assessed using a competitive inhibition assay. Briefly, plates were coated with 100 nM of either LRRC4B protein fragment #1 (amino acids 36-576 of SEQ ID NO: 2; SEQ ID NO: 5) or LRRC4B protein fragment #2 (amino acids 453-576 of SEQ ID NO: 2; SEQ ID NO: 7). Then, recombinant FAM19A5 protein (5 ng/ml for plates coated with LRRC4B fragment #1; and 1 ng/mL for plates coated with LRRC4B fragment #2) was added to the plates in combination with 20 nM of the FBC4-23, FBC4C-23, and FB-20 peptides. The plates were incubated at 37° C. and then, the amount of FAM19A5 protein bound to the coated LRRC4B protein fragments was assessed using HRP-conjugated anti-FAM19A5 (1-65) antibody.
Next, to determine the minimal sequence required to inhibit the interaction of FAM19A5 and members of the LRRC4 protein family, ten FB-20 peptide variants were constructed by serially deleting one or more amino acids from the N-terminus or C-terminus of the FB-20 peptide. Then, a competitive inhibition assay was used to assess the ability of the different FB-20 peptide variants to inhibit the interaction between FAM19A5 and LRRC4B protein. Again, plates were coated with 100 nM of either LRRC4B protein fragment #1 (amino acids 36-576 of SEQ ID NO: 2; SEQ ID NO: 5) or LRRC4B protein fragment #2 (amino acids 453-576 of SEQ ID NO: 2; SEQ ID NO: 7). Then, recombinant FAM19A5 protein (5 ng/ml for plates coated with LRRC4B fragment #1; and 1 ng/mL for plates coated with LRRC4B fragment #2) was added to the plates in combination with 20 nM of the different peptides described above. After incubating the plates at 37° C., the amount of FAM19A5 protein bound to the coated LRRC4B protein fragments was assessed using HRP-conjugated anti-FAM19A5 (1-65) antibody. […]

[2] = target: binding of FAM19A5 protein to LRRC4B (amino acids 453-576)-hFc (Homo sapiens, UniProt Q7Z5A7); test: Competitive inhibition assay, plate coated with LRRC4B (amino acids 453-576)-hFc, peptides at 20 nM; conditions: 20 nM peptide, FAM19A5 1 ng/mL
Chain of binding of FAM19A5 protein to LRRC4B (amino acids 453-576)-hFc (Q7Z5A7 44-132): as above
From the text: as §1
Next, to determine the minimal sequence required to inhibit the interaction of FAM19A5 and members of the LRRC4 protein family, ten FB-20 peptide variants were constructed by serially deleting one or more amino acids from the N-terminus or C-terminus of the FB-20 peptide. Then, a competitive inhibition assay was used to assess the ability of the different FB-20 peptide variants to inhibit the interaction between FAM19A5 and LRRC4B protein. Again, plates were coated with 100 nM of either LRRC4B protein fragment #1 (amino acids 36-576 of SEQ ID NO: 2; SEQ ID NO: 5) or LRRC4B protein fragment #2 (amino acids 453-576 of SEQ ID NO: 2; SEQ ID NO: 7). Then, recombinant FAM19A5 protein (5 ng/ml for plates coated with LRRC4B fragment #1; and 1 ng/mL for plates coated with LRRC4B fragment #2) was added to the plates in combination with 20 nM of the different peptides described above. After incubating the plates at 37° C., the amount of FAM19A5 protein bound to the coated LRRC4B protein fragments was assessed using HRP-conjugated anti-FAM19A5 (1-65) antibody.
To identify the critical amino acid residues, multiple FB-20 peptide mutants were constructed, in which the individual residues of the core binding domain (i.e., YTYFTTVTVETLE; SEQ ID NO: 15) were substituted with alanine (A) or asparagine (N). Then, the ability of these FB-20 peptide mutants to inhibit the interaction between LRRC4B and FAM19A5 proteins was assessed, as described in Examples 3 and 4.

FAM19A5 protein [3] = target: T1, FAM19A5 protein (Homo sapiens, UniProt Q7Z5A7); test: competitive inhibition ELISA; competitor: coated LRRC4B(453-576)-hFc
FAM19A5 protein [4] = target: T1, FAM19A5 protein; test: competitive inhibition ELISA; competitor: coated LRRC4B(36-576)-hFc

Molecule	Inhibition rate (%) (FAM19A5 protein [3])	Inhibition rate (%) (FAM19A5 protein [4])	also measured
KNYTYFTTVTNKETQ [FB-m8dC]	–	–	inhibition of interaction between FAM19A5 and the coated LRRC4B protein fragments (in words) [1]: failed to significantly inhibit; Inhibition rate (%) LRRC4B (amino acids 36-576)-hFc ([1]; Table 9, deletion variants): 5.1%; Inhibition rate (%) LRRC4B (amino acids 453-576)-hFc ([2]; Table 9, deletion variants): −0.9%
KNYTYFTTVTVENKETQ [FB-m10dC]	–	–	Inhibition rate (%) LRRC4B (amino acids 36-576)-hFc ([1]; Table 9, deletion variants): 62.0%; Inhibition rate (%) LRRC4B (amino acids 453-576)-hFc ([2]; Table 9, deletion variants): 21.9%
KNYTYFTTVTVETNKETQ [FB-m11dC]	–	–	inhibition of interaction between FAM19A5 and the coated LRRC4B protein fragments (in words) [1]: substantially inhibited the interaction; Inhibition rate (%) LRRC4B (amino acids 36-576)-hFc ([1]; Table 9, deletion variants): 65.0%; Inhibition rate (%) LRRC4B (amino acids 453-576)-hFc ([2]; Table 9, deletion variants): 30.4%
KNYTYFTTVTVNKETQ [FB-m9dC]	–	–	inhibition of interaction between FAM19A5 and the coated LRRC4B protein fragments (in words) [1]: failed to significantly inhibit; Inhibition rate (%) LRRC4B (amino acids 36-576)-hFc ([1]; Table 9, deletion variants): 16.8%; Inhibition rate (%) LRRC4B (amino acids 453-576)-hFc ([2]; Table 9, deletion variants): 2.7%
NFSYFSTVTVETMEPSQDERTTR [FBC4C-23]	–	–	inhibition of interaction between FAM19A5 and the coated LRRC4B protein fragments (in words) [1]: significantly decreased the interaction; Inhibition rate (%) LRRC4B (amino acids 36-576)-hFc ([1]; Table 8): 65.7%; Inhibition rate (%) LRRC4B (amino acids 453-576)-hFc ([2]; Table 8): 40.4%
NYSFFTTVTVETTEISPEDTTRK [FBC4-23]	–	–	inhibition of interaction between FAM19A5 and the coated LRRC4B protein fragments (in words) [1]: significantly decreased the interaction; Inhibition rate (%) LRRC4B (amino acids 36-576)-hFc ([1]; Table 8): 64.1%; Inhibition rate (%) LRRC4B (amino acids 453-576)-hFc ([2]; Table 8): 40.4%
GYTYATTVTVETLETQPGEE [FB-20[A4]]	1.5	2.7	–
GYTAFTTVTVETLETQPGEE [FB-20[A3]]	0	5.9	–
GYAYFTTVTVETLETQPGEE [FB-20[A2]]	-0.4	1	–
GATYFTTVTVETLETQPGEE [FB-20[A1]]	3.6	17.2	–
GYTYFTTVAVETLETQPGEE [FB-20[A8]]	-0.4	3.9	–
GYTYFTTATVETLETQPGEE [FB-20[A7]]	7.9	26.8	–
GYTYFATVTVETLETQPGEE [FB-20[A5]]	22.2	53.4	–
GYTYFTTVTVEALETQPGEE [FB-20[A11]]	50.3	73.4	–
GYTYFTTVTAETLETQPGEE [FB-20[A9]]	3.8	21.5	–
GYTYFTTVTVATLETQPGEE [FB-20[A10]]	6.4	19.6	–
GYTYFTAVTVETLETQPGEE [FB-20[A6]]	11	17.9	–

Second part, led by results:

Inhibition rate (%) (FAM19A5 protein [3])	Inhibition rate (%) (FAM19A5 protein [4])	Molecule	also measured
8.3	24.5	GYTYFTTNTVETLETQPGEE [FB-20[N7]]	–
55.6	74.1	GYTYFTTVTVENLETQPGEE [FB-20[N11]]	–
3.1	11.9	GNTYFTTVTVETLETQPGEE [FB-20[N1]]	–
-2.4	2.9	GYTYFTTVNVETLETQPGEE [FB-20[N8]]	–
2.5	-1.3	GYTYNTTVTVETLETQPGEE [FB-20[N4]]	–
6.5	17.5	GYTYFTTVTNETLETQPGEE [FB-20[N9]]	–
4	-5	GYTNFTTVTVETLETQPGEE [FB-20[N3]]	–
10.8	27	GYTYFTTVTVNTLETQPGEE [FB-20[N10]]	–
-0.4	-11.4	GYTYFTNVTVETLETQPGEE [FB-20[N6]]	–
-2	-0.7	GYNYFTTVTVETLETQPGEE [FB-20[N2]]	–
30.5	56.1	GYTYFNTVTVETLETQPGEE [FB-20[N5]]	–
